Data set [1] addresses T1, BjPutA (proline utilization A) (Bradyrhizobium diazoefficiens, UniProt Q89E26).
T1 sequence (Q89E26 1-999): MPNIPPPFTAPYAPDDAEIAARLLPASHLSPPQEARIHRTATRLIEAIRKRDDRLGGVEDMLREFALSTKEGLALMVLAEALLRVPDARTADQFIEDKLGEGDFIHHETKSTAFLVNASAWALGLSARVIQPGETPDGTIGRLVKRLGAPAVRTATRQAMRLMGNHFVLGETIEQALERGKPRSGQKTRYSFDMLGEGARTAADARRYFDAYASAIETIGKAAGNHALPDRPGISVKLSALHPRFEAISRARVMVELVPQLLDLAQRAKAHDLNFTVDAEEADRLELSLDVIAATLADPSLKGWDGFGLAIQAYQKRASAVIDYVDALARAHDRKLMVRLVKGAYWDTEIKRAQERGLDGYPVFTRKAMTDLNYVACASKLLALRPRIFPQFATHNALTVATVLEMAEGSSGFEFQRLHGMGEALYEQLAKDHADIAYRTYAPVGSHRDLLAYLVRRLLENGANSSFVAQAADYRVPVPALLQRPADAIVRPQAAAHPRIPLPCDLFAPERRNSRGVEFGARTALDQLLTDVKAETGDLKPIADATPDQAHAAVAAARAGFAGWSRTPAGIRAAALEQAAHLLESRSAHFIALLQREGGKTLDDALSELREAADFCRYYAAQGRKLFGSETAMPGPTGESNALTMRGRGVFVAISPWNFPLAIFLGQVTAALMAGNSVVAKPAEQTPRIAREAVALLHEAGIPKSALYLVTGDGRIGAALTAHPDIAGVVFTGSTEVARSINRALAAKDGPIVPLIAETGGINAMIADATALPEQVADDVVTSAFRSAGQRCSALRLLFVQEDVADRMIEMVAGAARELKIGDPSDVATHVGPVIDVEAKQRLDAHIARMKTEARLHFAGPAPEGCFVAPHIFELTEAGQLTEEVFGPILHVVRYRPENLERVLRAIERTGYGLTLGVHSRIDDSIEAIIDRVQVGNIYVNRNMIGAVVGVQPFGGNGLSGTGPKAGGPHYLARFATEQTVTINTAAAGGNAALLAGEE
In words: coupled PRODH-P5CDH assay, NADH formation at […] nm, substrate inhibition fit. Type of data set: biochemical. The conditions noted are these: 0.1 mM CoQ1, 0.2 mM NAD+, 50 mM potassium phosphate pH 7.5, 25 mM NaCl.

Substrate in data set [2]: COC1=C(OC)C(=O)C(CC=C(C)C)=C(C)C1=O
In words: purified protein. The conditions noted are these: 150 mM proline, 50 mM potassium phosphate pH 7.5, 23 °C.

Substrate in data set [3]: O=C(O)[C@@H]1CCCN1
As to the kind of experiment: purified protein. The conditions noted are these: 250 μM CoQ1, 50 mM potassium phosphate pH 7.5, 23 °C.

`O=C(O)[C@@H]1CCCN1` [proline] came in with a Ki in data set [1] of 24 ± 12 mM.

B1: BjPutA (proline utilization A) (Bradyrhizobium diazoefficiens USDA 110) (protein)
chain: T1 sequence (Q89E26 1-999)
As for B1, in the data set “purified protein [2]”, the Km was 0.105 ± 0.006 mM, the kcat is 2.9 ± 0.1 s⁻¹ and the kcat/Km came to 27600 ± 1710 M⁻¹ s⁻¹. Further, in “purified protein [3]”, the Km is on record as 43 ± 5 mM, the kcat turned out to be 3.1 ± 0.1 s⁻¹ and the kcat/Km was 72 ± 8.6 M⁻¹ s⁻¹.

In general, Km refers to the concentration of substrate that gives half-maximal velocity. A word on the kcat: it is the maximal rate divided by the concentration of active sites. The term kcat/Km denotes the turnover number divided by the Michaelis constant.
